Measurements taken from US20170189529A1.

Key:
[1] = target: H5 Vietnam/1203/2004 HA trimer (influenza A virus H5 Vietnam/1203/2004); assay: kinetic binding to HA trimer (instrument not stated)
[2] = target: H5 Vietnam/1194/2004 HA monomer (influenza A virus H5 Vietnam/1194/2004); assay: kinetic binding to HA monomer (instrument not stated)
[3] = target: H9 HongKong/1073/99 HA monomer (influenza A virus H9 HongKong/1073/99); assay: as above
[4] = target: H7 Netherlands/219/03 HA monomer (influenza A virus H7 Netherlands/219/03); assay: as above
[5] = target: recombinant HA of influenza A H3 A/Sydney/97 (influenza A virus H3 A/Sydney/97); assay: recombinant HA ELISA (AttoPhos fluorescence, mean of triplicates)
[6] = target: recombinant HA of influenza A H1 A/California/09 (influenza A virus H1 A/California/09); assay: as above
[7] = target: hemagglutinin (HA) of influenza B virus B/Malaysia (Victoria lineage) (influenza B virus B/Malaysia/04 (Victoria clade)); assay: ForteBio Octet; antigen on the sensor, varying antibody concentrations
[8] = target: hemagglutinin (HA) of influenza B virus B/Florida (Yamagata lineage) (influenza B virus B/Florida/06 (Yamagata clade)); assay: as above
[9] = target: H7 Netherlands/219/03 HA trimer (influenza A virus H7 Netherlands/219/03); assay: kinetic binding to HA trimer (instrument not stated)
[10] = target: H3 Perth/16/2009 HA monomer (influenza A virus H3 Perth/16/2009); assay: kinetic binding to HA monomer (instrument not stated)

Binder	fold reactivity over background (fold over background) [5]	fold reactivity over background (fold over background) [6]	Kd [7]	Kd [8]	other results
TRL053 (antibody, V domains shown) VH: QVQLVQSGAEVRKPGSSVKVSCKVSGGIIRKYAINWVRQAPGQGLEWMGGIIAIFNTANYAQKFQGRVTITADESTSTVYMELSSLRSEDTALYYCARGMNYYSDYFDYWGQGSLVTVSP VL: EIVLTQSPGTLSLSPGERATLSCRASQSVRSNNLAWYQHKPGQAPRLLIFGASSRATGIPDRFSGSGSGTDFTLTISRLEPEDFAVYYCQQYGSSPALTFGGGTKVEIKR	1	25.6			Kd [1]: 0.5 nM; koff [1]: 4.5e-05 s⁻¹; kon [1]: 92000 M⁻¹ s⁻¹; Kd [2]: 0.5 nM; koff [2]: 1.9e-05 s⁻¹; kon [2]: 38000 M⁻¹ s⁻¹; Kd [3]: 0.2 nM; koff [3]: 1.6e-05 s⁻¹; kon [3]: 98000 M⁻¹ s⁻¹; Kd [4]: 1.2 nM; koff [4]: 6.7e-05 s⁻¹; kon [4]: 55000 M⁻¹ s⁻¹
TRL784 (antibody, V domains shown) VH: QVQLVQSGPELKKPGSSVKLSCMATGGTFINYAFSWVRQAPGQGLEWLGGIIPVYGTSNHVEKLQGRVTITADASTNTAYMELSGLRFDDTAVYFCAASTATSGTYYAMRPFDFWGQGTLVSVSS VL: DIELTQDPSVSVAPGQTARIPCVRFNMGPTSVHWYQQKPGQAPVLVVYDDSDRPSGIPERFSGSNSGDSATLTISRVEAGDEADYYCQVWDMSSDRRVFGGGTTLTVLG			7 nM	0.7 nM	
TRL837 (antibody, V domains shown) VH: QVQLVQSGAEVKKPGSSVTVSCKTSGHTFISYAISWLRQAPGQGLEWMGGIVPIFGTVNYTQKFQGRLTITADESTSTAYMDLSRLTFEDTAIYFCAREAGYHSSFSGVYFDYWGQGTLLTVSS VL: DIVMTQSPGTLSLSPGERATLYCRASQSVRSGYLAWYQHKPGQAPLLLFYDASGRATGIPDRFSGSGSGTDFTLTISRLEPEDFAVYYCLQYGSSPRTFGQGTKVEIKR			1 nM	0.3 nM	
TRL823 (antibody, V domains shown) VH: QVQLVESGGGVVQPGGSLRLSCAASGFNFDEYVMYWVRQSPGKGLEWVSLIGADGRGTYNSDSVKGRFTISRDNRKNSLYLQMNSLRSDDTALYYCAKVERSFYDGSGYGDALEIWGQGTMVTVSS VL: DIVMTQSPSSLSASVGDRVSITCRASQTITRFLNWYQQKPGKGPKLLIYAASTVHRGVPSRFSGSGSGTDFTLTISSLQPEDFATYYCQQSYSAPFTFGPGTTVDIRR			0.3 nM	2 nM	
TRL813 (antibody, V domains shown) VH: QVQLVESGGGLVQPGGSLRLSCAASGFIFGDFAIHWVRQASGKGLEWVARIRSGLNRFETAYAASVEGRLTISRDDSKSMAYLQMNNVKAEDTAVYLCTYLVGAVGFQHWGQGTLVTVSS VL: DIVMTQSPSTLSASVGDRVTITCRASQTIYRWLAWYQQKPGKAPKVLIYKASTLESGVPSRFSGSGSGTEFTLAISSLQPDDFATYYCQQYNSFPYRFGQGTKVEIKR	1.1	1.6			
TRL835 (antibody, V domains shown) VH: QVQLVQSGAEVRKPGESLRISCRGSGYNFPKYWIGWVRQMPGKGLEWMGMIYPGDSDVRYNPSFQGQVTISADESINTAYLQWSSLRTSDTARYYCARHLGQQLVSNTYYYYGMDVWGQGTTVTVSS VL: DIVLTQSPLSLPVTPGEPASISCRSSQSLLDSNGYNYLDWYLQKPGQSPQLLIYLASYRAPGVPDRFSGSGSGTDFTLKISRVEAEDVGLYYCMQALQTPPMYTFGQGTKLEIKR			2.3 nM	0.6 nM	
TRL845 (antibody, V domains shown) VH: QVQLVQSGGDLVQPGGSLRLSCAASGFTFSRYSMNWVRQAPGMGLEWVAYISDTSRTIYYADSVKGRFTISRDNAKNSLYLQMKSLRDEDTAVYYCARDPDTPFVRAFDSWGQGTLVTVSS VL: DIVLTQSPSFLSASVGDRVTITCRASQLISSYFAWYQQKPGKPPKLLIYAASTLQSGVPSRFSGSGSGTQFSLTISSLQPEDFATYYCQQLNSYPPITFGQGTRLEIKR	1.1	1.4			
TRL579 (antibody, V domains shown) VH: QVQLVQSGAEVKKPGASVKVSCKTSGYTFTAYTIHWVRQAPGQRLEWMGWINAGNGHTKYSQRFKGRVTITRDTSARTTYMELRSLTSEDTALYFCARGPETYYYDKTNWLNSHPDEYFQHWGHGTQVTVSS VL: DIQMTQSPSTLSASVGDRVTITCRASQTINNYLAWYQQKPGKAPKLLIYKASSLESGVPSRFSGSGSGTEFTLTISSLQPDDFATYYCQEYNNDSPLTFGGGTKVEIKR	25.6	1			Kd [9]: 0.4 nM; koff [9]: 4e-05 s⁻¹; kon [9]: 100000 M⁻¹ s⁻¹; Kd [10]: 3.9 nM; koff [10]: 0.00064 s⁻¹; kon [10]: 170000 M⁻¹ s⁻¹
TRL854 (antibody, V domains shown) VH: QVQLVESGAEVKKPGASVRVSCKGSGYTFTAYHMHWVRQAPGQGFEWVGWINPNSGATYYTSTFEGRVTMTRDTSITTAYMELSSLRSDDTAVYYCATDIVVERDASLGGFNSYGMDVWGQGTTVTVSS VL: DIEMTQSPLSLPVTPGEPASISCRSSQSLLHSNGYNHLAWYLQKPGRSPHLLIYLASTRASGVPDRFSGSGSGTDFTLKISRVEAEDVGIYYCMQSLQTSITFGQGTRLEIKR	1.3	1.2			
TRL833 (antibody, V domains shown) VH: QVQLLESGPGLVKPSQTLLLTCTVSGASISTGGNYWSWIRQHPGKDLEWIGYIFYSGTTKYNPSVDNPSLKSRVTMSVDTSENQFSLKLSSVTAADTAVYFCARGSPNSGYDWGPHFDYWGQGTLVTVSS VL: DIELTQSPSVSVSPGQTASITCSGDKLGDKFVCWYQQKAGQSPIVVIYQDDKRPSGIPERFSGSNSGNTATLTISGTQAMDEADYFCQAWDSTTVVFGGGTKLTVLG			0.2 nM	2.9 nM	
TRL847 (antibody, V domains shown) VH: QVQLVESGGGLVQPGGSLRLSCVASGFTFSRFSMNWVRQAPGMGLEWVSYISDTGRTIYYADSVKGRFTISRDNDKNTLYLQMKSLRDEDSAFYYCARDPDTPFVRAFDSWGQGVLVTVSS VL: DIVMTQSPSFLSASVGDRVTITCRTSQVISSYLAWYQQRPGKAPKLLIYAASTLQSGVPSRFSGSGSGTRFSLTISNLQPEDFATYFCQQLTTYPPITFGQGTRLEIKR	1	1.1			
TRL832 (antibody, V domains shown) VH: QVQLVESGPGLMKPSETLSLTCTVSGGSVSNYYWSWIRQPPGKGLEWIGYVFYSGSSNYNPSLNNPSLKSRVTISIDTSNNQFSLKLSSVTAADTAVYYCARGRVNSGYDWGPNFDSWGQGALVTVSS VL: DIVLTQAPSVSVSPGQTASITCSGDRLGEKFASWYQQKPGQSPVLVIYEDSKRPSGIPDRFSGSNSGNTATLTISGTQIMDEGDFFCQAWDSSTVVFGGGTKLTVLG	1.1	1.1			
TRL856 (antibody, V domains shown) VH: QVQLVESGGGLVQPGGSLRLSCAASGFTFSDYWMVWVRQAPGKGLVWVSRISSDGSTTSYADSVKGPFTISRDNAKNTLYLQMNSLRAEDTAVYYCARVATPYYYESGFDYWGQGALVTVSS VL: DIVLTQSPSVSVAPGQTARITCGGNDIGSKSVHWYQQKPGQAPVLVVFDDRDRPSGIPERFSGSNSGNTATLTISRVEAGDEADYYCQVWDITSDLVVFGGGTKLTVVG	1.3	1.2			
